Measured values from US20210388087A1 (Chugai, published 2021).
Residue numbers refer to the chain shown, from its start. Names and notes keep the numbering of the source.

B1: CE115HA000 N53Y one-arm antibody (antibody, human IgG1, kappa, L234A L235A, N297A, name in Kabat numbering)
heavy: QVQLVESGGGVVQPGRSLRLSCAASGFTFSNAWMHWVRQAPGKGLEWVAQIKAKSYNYATYYAESVKGRFTISRDDSKNSLYLQMNSLKTEDTAVYYCRYVHYGAYYGVDAWGQGTTVTVSSASTKGPSVFPLAPSSKSTSGGTAALGCLVKDYFPEPVTVSWNSGALTSGVHTFPAVLQSSGLYSLSSVVTVPSSSLGTQTYICNVNHKPSNTKVDKKVEPKSCDKTHTCPPCPAPEAAGGPSVFLFPPKPKDTLMISRTPEVTCVVVDVSHEDPEVKFNWYVDGVEVHNAKTKPREEQYASTYRVVSVLTVLHQDWLNGKEYKCKVSNKALPAPIEKTISKAKGQPREPQVYTLPPSRCELTKNQVSLSCAVKGFYPSDIAVEWESNGQPENNYKTTPPVLDSDGSFFLVSKLTVDKSRWQQGNVFSCSVMHEALHNHYTQKSLSLSPDYKDDDDK
chain: EPKSSDKTHTCPPCPAPELLGGPSVFLFPPKPKDTLMISRTPEVTCVVVDVSHEDPEVKFNWYVDGVEVHNAKTKPREEQYNSTYRVVSVLTVLHQDWLNGKEYKCKVSNKALPAPIEKTISKAKGQPREPQVCTLPPSRDELTKNQVSLWCLVKGFYPSDIAVEWESNGQPENNYKTTPPVLDSDGSFFLYSKLTVDKSRWQQGNVFSCSVMHEALHNRYTQKSLSLSP
light: DIVMTQSPLSLPVTPGEPASISCRSSQSLVHSNRNTYLHWYQQKPGQAPRLLIYKVSNRFSGVPDRFSGSGSGTDFTLKISRVEAEDVGVYYCGQGTQVPYTFGQGTKLEIKRTVAAPSVFIFPPSDEQLKSGTASVVCLLNNFYPREAKVQWKVDNALQSGNSQESVTEQDSKDSTYSLSSTLTLSKADYEKHKVYACEVTHQGLSSPVTKSFNRGEC
B2: CE115HA000 N54A one-arm antibody (antibody, human IgG1, kappa, L234A L235A, N297A, name in Kabat numbering)
heavy: B1 heavy with Y56N, N57A
chain: B1 chain
light: B1 light
B3: CE115HA000 N54D one-arm antibody (antibody, human IgG1, kappa, L234A L235A, N297A, name in Kabat numbering)
heavy: B1 heavy with Y56N, N57D
chain: B1 chain
light: B1 light
B4: CE115HA000 N54F one-arm antibody (antibody, human IgG1, kappa, L234A L235A, N297A, name in Kabat numbering)
heavy: B1 heavy with Y56N, N57F
chain: B1 chain
light: B1 light
B5: CE115HA000 N54G one-arm antibody (antibody, human IgG1, kappa, L234A L235A, N297A, name in Kabat numbering)
heavy: B1 heavy with Y56N, N57G
chain: B1 chain
light: B1 light
B6: CE115HA000 N54K one-arm antibody (antibody, human IgG1, kappa, L234A L235A, N297A, name in Kabat numbering)
heavy: B1 heavy with Y56N, N57K
chain: B1 chain
light: B1 light
B7: CE115HA000 N54L one-arm antibody (antibody, human IgG1, kappa, L234A L235A, N297A, name in Kabat numbering)
heavy: B1 heavy with Y56N, N57L
chain: B1 chain
light: B1 light
B8: CE115HA000 N54Q one-arm antibody (antibody, human IgG1, kappa, L234A L235A, N297A, name in Kabat numbering)
heavy: B1 heavy with Y56N, N57Q
chain: B1 chain
light: B1 light
B9: CE115HA000 N54S one-arm antibody (antibody, human IgG1, kappa, L234A L235A, N297A, name in Kabat numbering)
heavy: B1 heavy with Y56N, N57S
chain: B1 chain
light: B1 light
B10: CE115HA000 N54Y one-arm antibody (antibody, human IgG1, kappa, L234A L235A, N297A, name in Kabat numbering)
heavy: B1 heavy with Y56N, N57Y
chain: B1 chain
light: B1 light
B11: CE115HA000 N76S one-arm antibody (antibody, human IgG1, kappa, L234A L235A, N297A, name in Kabat numbering)
heavy: B1 heavy with Y56N, N79S
chain: B1 chain
light: B1 light
B12: CE115HA000 N82aD one-arm antibody (antibody, human IgG1, kappa, L234A L235A, N297A, name in Kabat numbering)
heavy: B1 heavy with Y56N, N86D
chain: B1 chain
light: B1 light
B13: CE115HA000 Q50A one-arm antibody (antibody, human IgG1, kappa, L234A L235A, N297A, name in Kabat numbering)
heavy: B1 heavy with Q50A, Y56N
chain: B1 chain
light: B1 light
B14: CE115HA000 Q50D one-arm antibody (antibody, human IgG1, kappa, L234A L235A, N297A, name in Kabat numbering)
heavy: B1 heavy with Q50D, Y56N
chain: B1 chain
light: B1 light
B15: CE115HA000 Q50E one-arm antibody (antibody, human IgG1, kappa, L234A L235A, N297A, name in Kabat numbering)
heavy: B1 heavy with Q50E, Y56N
chain: B1 chain
light: B1 light
B16: CE115HA000 Q50I one-arm antibody (antibody, human IgG1, kappa, L234A L235A, N297A, name in Kabat numbering)
heavy: B1 heavy with Q50I, Y56N
chain: B1 chain
light: B1 light
B17: CE115HA000 Q50K one-arm antibody (antibody, human IgG1, kappa, L234A L235A, N297A, name in Kabat numbering)
heavy: B1 heavy with Q50K, Y56N
chain: B1 chain
light: B1 light
B18: CE115HA000 Q50L one-arm antibody (antibody, human IgG1, kappa, L234A L235A, N297A, name in Kabat numbering)
heavy: B1 heavy with Q50L, Y56N
chain: B1 chain
light: B1 light
B19: CE115HA000 Q50S one-arm antibody (antibody, human IgG1, kappa, L234A L235A, N297A, name in Kabat numbering)
heavy: B1 heavy with Q50S, Y56N
chain: B1 chain
light: B1 light
B20: CE115HA000 Q50Y one-arm antibody (antibody, human IgG1, kappa, L234A L235A, N297A, name in Kabat numbering)
heavy: B1 heavy with Q50Y, Y56N
chain: B1 chain
light: B1 light
B21: CE115HA000 Q105E one-arm antibody (antibody, human IgG1, kappa, L234A L235A, N297A, name in Kabat numbering)
heavy: B1 heavy with Y56N, Q114E
chain: B1 chain
light: B1 light
B22: CE115HA000 R16E one-arm antibody (antibody, human IgG1, kappa, L234A L235A, N297A, name in Kabat numbering)
heavy: B1 heavy with R16E, Y56N
chain: B1 chain
light: B1 light
B23: CE115HA000 R16Q one-arm antibody (antibody, human IgG1, kappa, L234A L235A, N297A, name in Kabat numbering)
heavy: B1 heavy with R16Q, Y56N
chain: B1 chain
light: B1 light
B24: CE115HA000 R19T one-arm antibody (antibody, human IgG1, kappa, L234A L235A, N297A, name in Kabat numbering)
heavy: B1 heavy with R19T, Y56N
chain: B1 chain
light: B1 light
B25: CE115HA000 S30D one-arm antibody (antibody, human IgG1, kappa, L234A L235A, N297A, name in Kabat numbering)
heavy: B1 heavy with S30D, Y56N
chain: B1 chain
light: B1 light
B26: CE115HA000 S30G one-arm antibody (antibody, human IgG1, kappa, L234A L235A, N297A, name in Kabat numbering)
heavy: B1 heavy with S30G, Y56N
chain: B1 chain
light: B1 light
B27: CE115HA000 S52cA one-arm antibody (antibody, human IgG1, kappa, L234A L235A, N297A, name in Kabat numbering)
heavy: B1 heavy with S55A, Y56N
chain: B1 chain
light: B1 light
B28: CE115HA000 S52cD one-arm antibody (antibody, human IgG1, kappa, L234A L235A, N297A, name in Kabat numbering)
heavy: B1 heavy with S55D, Y56N
chain: B1 chain
light: B1 light
B29: CE115HA000 S52cF one-arm antibody (antibody, human IgG1, kappa, L234A L235A, N297A, name in Kabat numbering)
heavy: B1 heavy with S55F, Y56N
chain: B1 chain
light: B1 light
B30: CE115HA000 S52cG one-arm antibody (antibody, human IgG1, kappa, L234A L235A, N297A, name in Kabat numbering)
heavy: B1 heavy with S55G, Y56N
chain: B1 chain
light: B1 light
B31: CE115HA000 S52cK one-arm antibody (antibody, human IgG1, kappa, L234A L235A, N297A, name in Kabat numbering)
heavy: B1 heavy with S55K, Y56N
chain: B1 chain
light: B1 light
B32: CE115HA000 S52cL one-arm antibody (antibody, human IgG1, kappa, L234A L235A, N297A, name in Kabat numbering)
heavy: B1 heavy with S55L, Y56N
chain: B1 chain
light: B1 light
B33: CE115HA000 S52cQ one-arm antibody (antibody, human IgG1, kappa, L234A L235A, N297A, name in Kabat numbering)
heavy: B1 heavy with S55Q, Y56N
chain: B1 chain
light: B1 light

Molecular target: T1, CD3 epsilon homodimer protein (UniProt P07766 23-126)
T1 construct: immobilized on Sensor chip CM4 by amine coupling; also called CD3 (CD3 epsilon)
T1 sequence (P07766 23-126): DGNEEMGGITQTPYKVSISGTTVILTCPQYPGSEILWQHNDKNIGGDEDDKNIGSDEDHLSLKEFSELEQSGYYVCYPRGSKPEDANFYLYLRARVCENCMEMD
Assay: SPR (Biacore T200), CD3 epsilon homodimer on CM4 chip, one-arm antibody as analyte, 25 C;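 also: homodimer attached to the sensor surface via amine coupling, HBS-EP+ used as running buffer during binding runs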
Procedure: An appropriate amount of CD3 epsilon homodimer protein was immobilized onto Sensor chip CM4 (GE Healthcare Japan Corp.) by the amine coupling method. Then, the antibody having an appropriate concentration was injected thereto as an analyte and allowed to interact with the CD3 epsilon homodimer protein on the sensor chip. Then, the sensor chip was regenerated by the injection of 10 mmol/L glycine-HCl (pH 1.5). The assay was conducted at 25 degrees C., and HBS-EP+(GE Healthcare Japan Corp.) was used as a running buffer. […] Each parameter was calculated using Biacore T200 Evaluation Software (GE Healthcare Japan Corp.).

ratio of amounts bound (altered form / CE115HA000)	Binder
0.63	B1
0.85	B2
0.62	B3
1.12	B4
0.98	B5
1.2	B6
0.94	B7
0.84	B8
0.84	B9
1.09	B10
0.92	B11
0.73	B12
0.24	B13
0.27	B14
0.26	B15
0.4	B16
0.33	B17

ratio of amounts bound (altered form / CE115HA000)	Binder
0.23	B18
0.24	B19
0.25	B20
0.94	B21
0.88	B22
0.9	B23
0.8	B24
0.86	B25
1.01	B26
0.96	B27
0.6	B28
1.13	B29
0.97	B30
1.19	B31
0.98	B32
1.04	B33
